For seven sequences, binding results are on record in PMC11826091.

In series [1] the test system is MtvA;MtvT (Pseudomonas aeruginosa PAD8 (plasmid pPAD8);Pseudomonas aeruginosa PAD8 (plasmid pPAD8)), ORF:f8ca6192+ORF:03226125. Put plainly: EMSA. Conditions: pH 8.0, 25 min at room temperature. For orientation: A gel shift assay detects complexes by their altered migration in electrophoresis.
In series [2] the test system is T1, MtvA (Pseudomonas aeruginosa PAD8 (plasmid pPAD8)), ORF:f8ca6192.
T1 sequence: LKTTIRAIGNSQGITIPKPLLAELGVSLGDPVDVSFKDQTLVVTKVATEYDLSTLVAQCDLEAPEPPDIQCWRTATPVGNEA
Put plainly: EMSA. Conditions: pH 8.0, 25 min at room temperature.

Turning to “CGGAAAACCTTAGACCCACTGAAGACCCGGCGTTCGCCGGGTTTTTTGTGTCTGCTCTTGTAAGCATTAACTTACACGGCGTGTGAGCCTAAGTAGATAAATGCCCGGGAGGTTTGCCAAAAACGCTCGGTGAATTTAAGTAACTTATTGAAATTAAAGGAATATATTTTTCTAAAATGGCTGCCGAAGAAGCTTCGCTGGGTTTTCTGGCAGGTTGCGGGAGCACTGGGAATCGCTAATATCACTCCTG (double strand) [P-rsmZ]”, the binding result in series [1] and in series [2] was “binds” each time.
In the case of “GCCGTCTCCGCGCGGGAGGAAAAGGCCACAGCGATGTGGCTTTTTTCTTAAAAGAAAAGTCTCTCAGTGACAAAAGCGATGCATAGCCCGGTGCTAGCATGCGCTGAGCTTTAGGAGGCGCCCCC (double strand) [P-exsC]”, the binding result in series [1] and in series [2] was “no binding” each time.
In the case of “GCTGGGAAGGCTCGCGATGATGAGGGGACTGGCCACTGTAGCGGGCCCGGCGCAGATCATCTTGACGCACGGCAAGCTCCCGGCGGCTGGGTGTTGCCGTCGGTCCGGCGAGCGGAACTATTACAGCGTGTAAGCCAAGGCTTACAAACGGCGGTGGTTTTGGCTGCTTTCTCCCCCTCGCAGAGATGCGTAATCTTCAAACCGTCAGGACATTGCGCAGG (double strand) [P-rsmY]”, the binding result in series [1] and in series [2] was “binds” in each case.
Take “GTACGATCATCTTCACTTCCTCCAAATAGGAAGCTGAAGAATTTATGCAAATTTCATAATTTTATAACTAGCAAATGAGATAGATTTCGGTGAACCCGGACCCTTGCTAGGCTCGAAGAAACGTCCGAAAAGATCAGAGCA (double strand) [P-lasI]”: the binding result in series [1] and in series [2] was “no binding” each time.
For “TATGGATCCCGTATCTGCTCGGTTGGTTGATGGACAAAGCGCTTATCAAAAGGAAAACAACGCTTTGGCGCACGACTATACAGCAACGAAAGTCGAACGATAAGGCAATGATAGTCAGAAGTGACCCACCACTCAACACCAACCCACGCCCATATAGGTCTACGGTGACCTAAAACCTCGCTCGCCCTCCAAATAGGTCACCTGTGACCCTCGAGTAA (double strand) [P-dotD]”, the binding result in series [1] and in series [2] was “binds” throughout.
In the case of “TTACTCGAGAAGTTTGGAATAACCAGAGATATGCTCGTCAACAACGAATGTTTGAACATATTTATCGGAACTTATTACATTCAGCGTAGCGTGCTGGGGAGTGATGATTTTTGGAAGGGCGTTGGTAATTACCACTCTCGCACGCCCGACAAAAACTACCGGTACAAACATCGTGTGTGGAACAGTCTCAAAGAAGTCCGGGGGCAGCAGGATCCATA (double strand) [P-icmP]”, the binding result in series [1] and in series [2] was “binds” each time.
“TTACTCGAGTGATGGCGATCGCCGCCGACGATGCTTCGTTTGATCACAGCTGCGTGGTCAACTTCAAATCGGCCGCCTGAGGGCGGCCCTACCCATAGATCCTGATTCCTCAACAAGAAAAAGCGACGTGTCCATTCGTTGACACTAAAGGTATTTTTGCGTATTTTTCGACATTATCATCTAATGAAAGTCGTTGGGGTTTGTTCGGTGGATCCATA (double strand) [P-icmL]”: the binding entry in series [1] and in series [2] was “binds” in each case.
